In patent publication US6914129 (dated 2005):
Numbering of substitutions follows the chain as printed.

B1: IgE mutant 3 (protein)
chain: ASTQSPSVFPLTRCCKNIPSNATSVTLGCLATGYFPEPVMVTWDTGSLNGTTMTLPATTLTLSGHYATISLLTVSGAWAKQMFTCRVAHTPSSTDWVDNKTFSVCSRDFTPPTVKILQSSCDGGGHFPPTIQLLCLVSGYTPGTINITWLEDGQVMDVDLSTASTTQEGELASTQSELTLSQKHWLSDRTYTCQVTYQGHTFEDSTKKCADSNPRGVSAYLSRPSPFDLFIRKSPTITCLVVDLAPSKGTVNLTWSRASGKPVNHSTRKEEKQRNGTLTVTSTLPVGTRDWIEGETYQCRVTHPHLPRALMRSTTKTSGPRAAPEVYAFATPEWPGSRDKRTLACLIQNFMPEDISVQWLHNEVQLPDARHSTTQPRKTKGSGFFVFSRLEVTRAEWEQKDEFICRAVHEAASPSQTVQRAVSVNPGLAGGSAQSQRAPDRVLCHSGQQQGLPRAAGGSVPHPRCHCGAGRADWPGPPELDVCVEEAEGEAPWTWTGLC
B2: IgE mutant 50 (protein)
chain: B1 chain
B3: IgE mutant 1 (protein)
chain: B1 chain
B4: IgE mutant 4 (protein)
chain: B1 chain with G287L, T288H, R289Q, I292L, E293D, E295K, T296E
B5: IgE mutant 62 (protein)
chain: B1 chain with K183A

Columns and labels:
FceRII (CD23, FCEL) = target: T1, FceRII (CD23, FCEL) (human, UniProt P06734); assay: FACS
T1 chain: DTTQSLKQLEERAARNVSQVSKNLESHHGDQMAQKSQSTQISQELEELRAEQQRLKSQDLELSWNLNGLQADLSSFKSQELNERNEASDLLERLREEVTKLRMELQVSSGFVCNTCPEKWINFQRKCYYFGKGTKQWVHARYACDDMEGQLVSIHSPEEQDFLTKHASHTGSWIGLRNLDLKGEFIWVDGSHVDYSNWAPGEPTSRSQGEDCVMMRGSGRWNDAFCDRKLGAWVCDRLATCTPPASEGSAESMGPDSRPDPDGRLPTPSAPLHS

FceRI alpha (FCEH) = target: T2, FceRI alpha (FCEH) (human, UniProt P12319); assay: FACS
T2 chain: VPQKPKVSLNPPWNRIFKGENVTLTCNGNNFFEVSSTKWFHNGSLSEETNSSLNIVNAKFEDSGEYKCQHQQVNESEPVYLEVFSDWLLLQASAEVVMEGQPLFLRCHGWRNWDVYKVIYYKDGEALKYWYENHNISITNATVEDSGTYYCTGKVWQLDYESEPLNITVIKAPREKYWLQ

Binder	binding result (FceRII (CD23, FCEL))	binding result (FceRI alpha (FCEH))
B1	no binding	
B2	no binding	
B3	no binding	no binding
B4	no binding	no binding
B5	no binding	
